Results: patent US6372211B1, “Methods and compositions for controlling insects” (Monsanto Technolgy LLC, priority 1997, dated 2002)

Experiments:
T. viride lysine oxidase [1] = settings: data from Kusakabe et al., 1980; cited from earlier work
F22844 lysine oxidase = experiment: Substrate specificity of F22844 lysine oxidase; assay type: biochemical, Trichoderma sp.; settings: lysine = 100, L-isomers
Mr 50,000 protein = Mr 50,000 protein assay (hydrogen peroxide colorimetric); assay type: biochemical, Trichoderma sp.; settings: hydrogen peroxide formation monitored
Experimental: Hydrogen peroxide appears to be the byproduct of the Mr 50,000 protein reaction. The formation of hydrogen peroxide was monitored by a colorimetric assay (Gallo, 1981). P2C was prepared by two separate methods for the initial Mr 50,000 protein assay. The two methods used for preparing P2C were
1) L-lysine with lysine oxidase and catalase; and
2) DL-pipecolic acid with D-amino acid oxidase and catalase.
P2C was isolated from the protein mixture by filtration using an Amicon filter (10 kDa cutoff) before using in the Mr 50,000 protein assay.

[2] = tested on: Trichoderma sp. F22844 L-lysine oxidase (Mr 56,000 protein, E.C. 1.4.3.14), native; proprotein SEQ ID NO:46; settings: read-out: Km for lysine; lysine oxidase from F22844
T. viride lysine oxidase [3] = settings: read-out: Km for lysine, reported, Kusakabe et al., 1980; cited from earlier work
[4] = Lysine oxidase enzymatic assay of enzyme preparations; assay type: biochemical; settings: purified lysine oxidase
Experimental: F22844 was identified taxonomically as a Trichoderma species.
(§1) Yeast (Saccharomyces cerevisiae) transformed with pMON25030 were grown in the presence of galactose and shown to produce enzymatically active lysine oxidase. Yeast transformed with pMON25030 had soluble lysine oxidase activity in both disrupted cell pellets and cell free culture media. […] Lysine oxidase from the yeast culture media was subsequently purified and shown to have bioactivity against corn rootworm when combined with tedanalactam synthase.

corn rootworm = experiment: Corn rootworm bioassay (species not stated); assay type: in vivo, Diabrotica spp.; settings: Table 11, yeast recombinant lysine oxidase 14 ppm, F22844 Mr 50,000 10 ppm, alone or combined; for # of survivors: 16 wells/sample, buffer 61, 45; for Mean larval wt. (mg) (±SEM): buffer 0.94, 0.84
Experimental: (§2) These leads were not characterized further. […] Lysine oxidase from Trichoderma viride is available commercially from Sigma (St. Louis, Mo.). The enzyme was purified to a single band from this preparation and bioassayed against southern corn rootworm. Bioassays were conducted to compare the concentration responses of the T. viride lysine oxidase (±Mr 50,000 protein from F22844) with the lysine oxidase purified from F22844. The bioactivity of the T viride lysine oxidase agrees very well with the bioactivity of lysine oxidase from F22844 when bioassayed in the presence of tedanalactam synthase from F22844 (Table 10). Very similar stunting levels are seen at equivalent doses (compare Table 10 to Table 7). In addition, no bioactivity is seen with either lysine oxidase in the absence of tedanalactam synthase from F22844.
as §1

southern corn rootworm = experiment: Southern corn rootworm artificial diet bioassay; assay type: in vivo; settings: for Mean larval wt. (mg) (+SEM) / # of survivors: Table 12, SCRW neonate, T. viride lysine oxidase 10 ppm, E. coli produced Mr 50,000 18 ppm; for Mean larval wt. (mg) (+SEM): buffer 0.68, 0.57; for # of survivors: buffer 51, 52
Experimental: These proteins were then purified by sizing and ion exchange chromatography. […] In both cases, no bioactivity was detected when the proteins were assayed individually but significant stunting was seen when the proteins were combined in assay.
Native-PAGE studies were effective in confirming that the Mr 56,000 and Mr 50,000 proteins were responsible for the southern corn rootworm bioactivity of F22844. The chromatographically purified Mr 56,000 and Mr 50,000 proteins were further purified by native PAGE. […] A sample containing a combination of the two proteins at concentrations of 9.7 μg/mL of Mr 56,000 and 2.5 μg/mL of Mr 50,000 yielded 89% stunting of corn rootworm larvae (Table 3). […]
as §2
An NcoI-HindIII fragment containing the full length tedanalactam synthase cDNA gene (SEQ ID NO:40) from pMON25424 was interested into pMON6235, an E. coli expression vector containing an arabinose inducible promoter and G10 leader sequence to produce pMON25428 (FIG. 12). […] The relative migration of the expressed protein on SDS-PAGE was identical to the F22844 purified tedanalactam synthase. The recombinant tedanalactam synthase was purified in a 5 step procedure from E. coli expressing the tedanalactam synthase gene. Lysine oxidase was purified from a commercial preparation of T. viride lysine oxidase. Both the lysine oxidase and tedanalactam synthase were >95% pure by SDS-PAGE.

[5] = tested on: proteases present in the midgut of southern corn rootworm; experiment: Activation of LO69 proenzyme by midgut extract; assay type: biochemical
Excerpt: The lysine oxidase gene encodes a 69 kDa proenzyme which is N-terminally cleaved when expressed in Trichoderma or Saccharomyces to yield a mature and enzymatically active protein of approximately 60 kDa. To determine if the lysine oxidase-69 (LO69) proenzyme (Seq ID NO: 46) expressed in corn protoplasts can be activated by the proteases present in the midgut of southern corn rootworm, midguts were dissected from late instar larvae and the proteases extracted. Protease activity assays confirmed the presence of proteases in this extract. This extract and appropriate controls were incubated for about 22 hours at 25° C. with extracts from protoplasts electroporated with pMON25040 (i.e. the CaMV35S promoter and hsp70 intron fused to the 1.9 kb lysine oxidase gene encoding the Mr 69,000 proprotein, SEQ ID NO:45) and non-electroporated controls and assayed for lysine oxidase activity.

[6] = tested on: southern corn rootworm larvae; experiment: Diet overlay assay with SCRW; assay type: in vivo; settings: for Av. Wght: Tris control 2.6
Excerpt: However, ingestion of LO69 expressing root tissue by CRW is likely to result in activation of lysine oxidase by proteolysis and subsequent insecticidal activity when the tedanalactam synthase protein is also present. […] The absence of LO activity in the proenzyme sample was confirmed by direct enzymatic assays just prior to exposure to insects.

[7] = Table 2a, Mr 56,000 10 μg/mL, Mr 50,000 1.5 μg/mL, alone or combined, NSS = not statistically significant
[8] = Table 3, native PAGE purified, Mr 56,000 9.7 μg/mL, Mr 50,000 2.5 μg/mL, alone or combined
[9] = second table headed TABLE 2a, Mr 56,000 10 μg/mL, Mr 50,000 1.5 μg/mL, NSS = not statistically significant
[10] = each protein at 2 ppm, of larval weight vs control
[11] = single protein at 10 ppm, 50 kD activity ascribed to low level LO contamination

In the case of `N[C@@H](Cc1ccccc1)C(=O)O` [Phenylalanine], the “Relative activity (%)” value (T. viride lysine oxidase [1]) is given as 8.3% and the “Relative activity (%)” value (F22844 lysine oxidase) is given as 6.6%.

For `N[C@@H](Cc1c[nH]cn1)C(=O)O` [Histidine], the “Relative activity (%)” value (T. viride lysine oxidase [1]) is given as 3.8% and the “Relative activity (%)” value (F22844 lysine oxidase) is given as 5.0%.

In the case of `O=C(O)C1CCCC=N1` (centres unmarked) [P2C, Δ^1-piperideine-2-carboxylate], the “substrate of Mr 50,000 protein” value (Mr 50,000 protein) is reported as “catalyses the conversion of Δ^1-piperideine-2-carboxylate (P2C) to product I”.

In the case of `N=C(N)NCCC[C@H](N)C(=O)O` [Arginine], the “Relative activity (%)” value (T. viride lysine oxidase [1]) is given as 6.1% and the “Relative activity (%)” value (F22844 lysine oxidase) is given as 2.6%.

For `NCCCC[C@H](N)C(=O)O` [lysine], the Km [2] is given as 26 µM and the Km (T. viride lysine oxidase [3]) is given as 40 µM.

In the case of `NCCCC[C@H](N)C(=O)O` [Lysine], the “substrate of Mr 50,000 protein” value (Mr 50,000 protein) is given as “not substrates”, the “Relative activity (%)” value (T. viride lysine oxidase [1]) is given as 100% and the “Relative activity (%)” value (F22844 lysine oxidase) is given as 100.0%.

For `O=C(O)C1CCCCN1` (centres unmarked) [Pipecolic acid], the “substrate of Mr 50,000 protein” value (Mr 50,000 protein) was “not substrates”.

For `NCCC[C@H](N)C(=O)O` [Ornithine], the “Relative activity (%)” value (T. viride lysine oxidase [1]) is given as 18.2% and the “Relative activity (%)” value (F22844 lysine oxidase) is given as 10.8%.

B1: L-lysine oxidase (protein)
chain: MDNVDFAESVRTRWARRLIREKVAKELNILTERLGEVPGIPPPNEGRFLGGGYSHDNLPSDPLYSSIKPALLKEAPRAEEELPPRKVCIVGAGVSGLYIAMILDDLKIPNLTYDIFESSSRTGGRLYTHHFTDAKHDYYDIGAMRYPDIPSMKRTFNLFKRTGMPLIKYYLDGENTPQLYNNHFFAKGVSDPYMVSVANGGTVPDDVVDSVGEKLQQAFGYYKEKLAEDFDKGFDELMLVDDMTTREYLKRGGPKGEAPKYDFFAIQWMETQNTGTNLFDQAFSESVIDSFDFDNPTKPEWYCIEGGTSLLVDAMKETLVHKVQNNKRVDAISIDLDAPDDGNMSVRIGGKDHSGYSTVFNTTALGCLDRMDLRGLNLHPTQADAIRCLHYDNSTKVALKFSYPWWIKDCGITCGGAASTDLPLRTCVYPSYNLDDTGEAVLLASYTWSQDATRIGSLVKDAPPQPPKEDELVELILQNLARLHAEHMTYEKIKEAYTGVYHAYCWANDPNVGGAFALFGPGQFSNLYPYLMRPAAGGKFHIVGEASSVHHAWIIGSLESAYTAVYQFLYKYKMWDYLRLLLERWQYGLQELETGKHGTAHLQFILGSLPKEYQVKI
notes: Mr 56,000 protein purified from Trichoderma sp; F22844 culture filtrate, identified as L-lysine oxidase
For B1, the specific activity [4] was 37 U/mg protein, the “# of survivors” value (corn rootworm) was 38 and the “Mean larval wt. (mg) (±SEM)” value (corn rootworm) was 0.76 ± 0.06 mg. For the same molecule, the “% Stunting” value (southern corn rootworm; [7]) was “NSS”, the “% Stunting” value (southern corn rootworm; [8]) was “NSS” and the “Mean larval wt. (mg) (+SEM)” value (southern corn rootworm; alone or combined) was 0.48 ± 0.04 mg. For the same molecule, the “# of survivors” value (southern corn rootworm; alone or combined) was 46 and the “% Stunting” value (southern corn rootworm; [9]) was “NSS”.

B2: LO69: 69 kDa lysine oxidase proenzyme (SEQ ID NO: 46); corn protoplast extract in Table 20, purified from Saccharomyces cerevisiae in Table 21 (protein)
chain: B1 chain
With B2 the “Lysine oxidase Sp. Act.” value ([5]; BSA) was 12 U/μg protein, the “Fold Difference” value ([5]; BSA, relative to heated gut extract) was 1.2 and the “Lysine oxidase Sp. Act.” value ([5]; corn protoplast extract, gut extract, about 22 hours at 25° C.) was 1292 U/μg protein. For the same molecule, the “Lysine oxidase Sp. Act.” value ([5]; gut extract, protease inhibitor) was 997 U/μg protein, the “Fold Difference” value ([5]; gut extract, protease inhibitor, relative to heated gut extract) was 97 and the “Fold Difference” value ([5]; gut extract, relative to LO69 with heated gut extract) was 130. The “Lysine oxidase Sp. Act.” value ([5]; heated gut extract) was 10 U/μg protein, the “Fold Difference” value ([5]; heated gut extract (reference)) was 0 and the “Av. Wght” value ([6]; each protein at 2 ppm) was 2.1 mg. For the same molecule, the Surv ([6]; each protein at 2 ppm, n 18) was 17, the “% inhibition” value [6, 10] was 20% and the Surv ([6]; single protein at 10 ppm) was 17. For the same molecule, the “% inhibition” value [6, 11] was 0%, the “Av. Wght” value ([6]; single protein at 10 ppm) was 3.3 mg and the “% inhibition” value ([6]; single protein at 20 ppm) was 0%. For the same molecule, the “Av. Wght” value ([6]; single protein at 20 ppm) was 2.8 mg and the Surv ([6]; single protein at 20 ppm, n 18) was 18.

B3: Mr 50,000: Mr 50,000 protein from F22844, tedanalactam synthase converting Δ1-piperideine-2-carboxylate to tedanalactam (protein)
chain: MADEIYDVVVIGGGPIGLAAAYEAAKEGAKVVVLEQNNFFNHAGSSNDLARMFRTMYTEDYMADLAKEALALWDDLERDSGTPLRWMSGLLNFGDKDYGGDTPEGTLLGPIANLDRLGMTYQELSAKEIEARYPFKNLDPKYIGLFAPDNGLINVQLLLRTLYKLSLDYGATAKQHTKVQAIKPSNHSHYAWDVHAIRHETEAAVFKAKKIIIASGAYVNHVLKPSFDISLDLDIWEMVFSYFNCNAGPKGTIFPSMWFQFAPDKNGRSQLFYGFPALPWGPPNLARIAVDAATRRIKDPNERLTSTINPEDIADTQEFIRNHCVNVDPTIPALTSSCLQTNVFDNMFVLDFVPEKYLNGGAKDSVVVFTAGWAMKFVPMIGKALADMALKGSSPYARKEFAITRTDSATGKGIIVEGGSENRSVKSSAFVFYSPGIRFFVCRLP
For B3, the “Av. Wght” value ([6]; each protein at 2 ppm) was 3.5 mg, the Surv ([6]; each protein at 2 ppm, n 18) was 18 and the “% inhibition” value [6, 10] was 0%. For the same molecule, the Surv ([6]; single protein at 10 ppm) was 18, the “% inhibition” value [6, 11] was 39% and the “Av. Wght” value ([6]; single protein at 10 ppm) was 1.5 mg. For the same molecule, the “# of survivors” value (corn rootworm) was 43, the “Mean larval wt. (mg) (±SEM)” value (corn rootworm) was 0.80 ± 0.07 mg and the “% Stunting” value (southern corn rootworm; [7]) was “NSS”. The “% Stunting” value (southern corn rootworm; [8]) was “NSS”, the “Mean larval wt. (mg) (+SEM)” value (southern corn rootworm; alone or combined) was 0.52 ± 0.03 mg and the “# of survivors” value (southern corn rootworm; alone or combined) was 80. The “% Stunting” value (southern corn rootworm; [9]) was “NSS”.
